Experiment: soluble on expression in E. coli; label from the status in PepcDB or PDB records
With “MSLMSNDRKVTEIENSPVTEVRPEEHAWYPDDSALAAPPAATPAAISDQLPSDRYLNRELSWLDFNARVLALAADKSMPLLERAKFLAIFASNLDEFYMVRVAGLKRRDEMGLSVRSADGLTPREQLGRIGEQTQQLASRHARVFLDSVLPALGEEGIYIVTWADLDQAERDRLSTYFNEQVFPVLTPLAVDPAHPFPFVSGLSLNLAVTVRQPEDGTQHFARVKVPDNVDRFVELAAREASEEAAGTEGRTALRFLPMEELIAAFLPVLFPGMEIVEHHAFRITRNADFEVEEDRDEDLLQALERELARRRFGSPVRLEIADDMTESMLELLLRELDVHPGDVIEVPGLLDLSSLWQIYAVDRPTLKDRTFVPATHPAFAERETPKSIFATLREGDVLVHHPYDSFSTSVQRFIEQAAADPNVLAIKQTLYRTSGDSPIVRALIDAAEAGKQVVALVEIKARFDEQANIAWARALEQAGVHVAYGLVGLKTHCKTALVVRREGPTIRRYCHVGTGNYNSKTARLYEDVGLLTAAPDIGADLTDLFNSLTGYSRKLSYRNLLVAPHGIRAGIIDRVEREVAAHRAEGAHNGKGRIRLKMNALVDEQVIDALYRASRAGVRIEVVVRGICALRPGAQGISENIIVRSILGRFLEHSRILHFRAIDEFWIGSADMMHRNLDRRVEVMAQVKNPRLTAQLDELFESALDPCTRCWELGPDGQWTASPQEGHSVRDHQESLMERHRSEGHHHHHH” the “soluble on expression in E. coli” value was “soluble”.
For “MKPKSGAVRRLEKNTMNFVLSDVADAEAEKAIRDPLVAYNLARFGESDKRDLNITIRNDDNSVTGGLVGHTARGWLYVQLLFVPEAMRGQGIAPKLLAMAEEEARKRGCMGAYIDTMNPDALRTYERYGFTKIGSLGPLSSGQSITWLEKRF”, the “soluble on expression in E. coli” value was “soluble”.
With “MSLAVNLTEKTAEQLPDIDGIALYTAQAGVKKPGHTDLTLIAVAAGSTVGAVFTTNRFCAAPVHIAKSHLFDEDGVRALVINTGNANAGTGAQGRIDALAVCAAAARQIGCKPNQVLPFSTGVILEPLPADKIIAALPKMQPAFWNEAARAIMTTDTVPKAASREGKVGDKHTVRATGIAKGSGMIHPNMATMLGFIATDAKVSQPVLQLMTQEIADETFNTITVDGDTSTNDSFVIIATGKNSQSEIDNIADPRYAQLKELLCSLALELAQAIVRDGEGATKFITVRVENAKTRDEARQAAYAVARSPLVKTAFFASDPNLGRLLAAIGYAGVADLDTDLVEMYLDDILVAEHGGRAASYTEAQGQAVMSKAEITVRIKLHRGQAAATVYTCDLSHGYVSINADYRSEGHHHHHH” the “soluble on expression in E. coli” value was “soluble”.
With “MGSDKIHHHHHHMIFKEFGNKNMPTIVFLHGGGLSFWSFKEELSALKNSYRIVTPIIDGHGEDYNNTFISISNSAKHVINYIQESCNGHVFCICGLSLGAQILVEVLSLKHNISEYAVIESALVYPIKLSLNLMVAMNSLAYGLIKKKWFAKLQAKTLNVPQELFETYYKESSKMTKETLINITKSNGSYPMPNSICNTTASTLILVGERELSIMKKSAKLLNETIDNSILNIIPKAKHGEISLAYPKQYLDLLNKLFNSKK” the “soluble on expression in E. coli” value was “not soluble”.
For “MDVVFPKMPHHQTVTNVRVPSSRGSAISRAHSEHRRSIDRSEPRHHHRHHVHSETPELPYTRGISKTPSVREYNVKREGQRSPSRSHRSERSPSEVRIPVTTTHTRPIAKRQSPEELDYGRFADKSQQNRFPGDHQAREEDLPYTRGISKTPSNQDSRSERTPCSDIHIPYNNPEKERAYQQSERSSYRSHKSVTPSEKSLPRNSETPELHYTRGISKTPSDRVEKSRYLSRGVSTPHTPSEVHIPYNNPEKERAYQQSHRPSSPKRRPSGRTNSPNKSSSSSKARPSAAPLEEIVHIKERYERDETIRRFFPTTTAV”, the “soluble on expression in E. coli” value was “not soluble”.
For “SAQEEGGSLPEVRARVRAAHGIPDLAQKLHFYDRWAPDYDQDVATLLYRAPRLAVDCLTQALPGPPHSALILDVACGTGLVAAELRAPGFLQLHGVDGSPGMLEQARAPGLYQRLSLCTLGQEPLPSPEGTFDAVLIVGALSDGQVPCNAIPELHVTKPGGLVCLTTRTNWSNLQYKEALEATLDRLEQAGMWEGLVAWPVDRLWTAGSWLPPSWWWYPASLPRMASSPALSTCTESGRRPRLRK”, the “soluble on expression in E. coli” value was “soluble”.
For “MISYQKAKLAKNLAISTASKWLFVHSSTGGSATNLSIAQYATLINGIQSAIKCQVILTAGKGERERAVELAEKLTDQNVVIYDKNDGLADFTRSLACADLFIAGSTGPLHIAGGLNIPTVGFYPSRLSATPRRWRPINQVDKHLAFCPPSGKQCEMDLTLISIEQALTSVIPFIKKMWQLSLEHHHHHH”, the “soluble on expression in E. coli” value was “not soluble”.
For “MGSDKIHHHHHHMLEQQATIVDVNESNLNQVLEHSATLPVLFYFWSARSQHCVELEPVLDKLAQEYAGQFVLAKVDCDAEQRVAAQFGLRSIPTVYLFKDGQPLDGFQGPQPEEAVRELLKRALPKEEELKVAQAQQLIQEDKLPEAMQLLKDAWQLSQQRSDIGLMLAEVQIQIKRSEDAEAVLAAIPLQDQDTRYHSLVAQIELLKQAADTPEIQHLQQQLDADPQNADLAVQLALQLHQVSRNEEALELLMGFLKKDLAVANGSARKTLMDIMAALGTSDALAARYRRQLYSLLY”, the “soluble on expression in E. coli” value was “not soluble”.
For “MENVSDDRFAEMVWEAVSGGATLKDVHGIPQDMMEGLYAHAYDFYHKGRLDEAETFFRFLCIYDFYNPDYIMGLAAVCQLKKQFQKAVDLYAVAFALSKNDYRPVFFTGQCQLFMRKAAKARQCFELVCEQSGLEHHHHHH”, the “soluble on expression in E. coli” value was “not soluble”.
With “GMEQATRTIYSEYAAYPETQGIIAVEKRQPRDSLTDQFDVLLLVITRDPSVEWTVKHYRLNTLRVSLHLVHEQVLSRWLILNANRRAVHWVSEGTIIFERNDYLTDLKKQLRNFPETERCLQMSLSFAKLLRRFQDGRNLFSRGNYYDAYTHVHHALHHLARLSVLEKGAHPEVVVWEQARLDDPDVYKLYEQLLLSEETLEQRIHLALIGLEHLLQSKVLSGGKYLFEVMRERDRPWTMHELMEESRLTELKVDLGSLVDFFIRKGLIRISYQRTKGLGVELVTYEPVV” the “soluble on expression in E. coli” value was “soluble”.
In the case of “MGSDKIHHHHHHMNDYLDDYEFNNLDFYRKNHGLQLYYNWSGEICWQETPDKPQEKLFSIIGMNATKVFLKPDPEHGEVGYRINRELGLFCDPDTQEILHSWKSPTASQPVPVVHIANRIVQGSVKPKKFVIPKGKGYITSVMEIPLEYPHPLAGDSKYLDYCPGEKFKGVEYFISNTCRPDATEVPPAKWARDCPWMPWMKLGYAHPAKLRFETTIFRVDSFEQLHPSLVNLVREKVPIYEFTPTESDEPNVTSIQYFKKNFESYLRGDIFPLEERY”, the “soluble on expression in E. coli” value is reported as “not soluble”.
With “MAHHHHHHMLFRTIRHFDLRRPTLMELVRELRFRTEAPIADCCAALKEANENMDRALEVLRNKGLAKAVKKGSRVTEHGSVVACVGETFGAAIVTVCSETDFAARSLQFQRVCGTVMETLRTQIISTEGTALDDCAAVHRLLTDAAAEQIQATIAVLGENVTIKSIQPLRFAPHVAEHISIGAYTHGTLSVQNVGRVAGVVAVSRTDPSARVPEEKLVDVARHFVACSGAEGSYAHQNFFGTEETVGQWLKRHGLRFSSSLVVDFGKEPIIHTAPQPVAGTK” the “soluble on expression in E. coli” value was “soluble”.
In the case of “MGSDKIHHHHHHMLRLSALGDVCNLVPTIRVLQRLWPDARITWIIGKGEHSLLAGLSGVEFIVYDKATGLAGMREVWRQLGDTRFDVLLHMQQALRASVLSLGLKADLRIGYDKARAKDWQHWFTHRQLTPHPRAHVLDSFLDFARLLGGAERVDAEPLRWDLAIPDTAYQEAARVTGDAPYIVISPCANPRLRNFRNWSAEGYAAVISHAWQEHGLRTVMTGGGSTQEQEMGARIRALCAEEAVIDAIGATSLKGLLAMLDRARMVIAPDSGPVHMANALRTPTLGLYATTNPERAAPYCWRDFVVDRYPDAVRRYLHKSPEAITWGARVRHPDAMSLIHADDVIAQFDALLNAAPSASSRPEPDHET”, the “soluble on expression in E. coli” value is reported as “not soluble”.
With “MATVKTVLVKGRCNSRGAYPLAVQVLHKRKKKVFYTGYSITPCEFDSFSGRVLFNGVYTMETVRRMNRTCRKICKILDKAIGILEREGNEYTTCDISRVYETLTGKVGFYSYFRERIRVLFDTGHEGTAKAYEATLHSMQKHLCKTDFPFAHLSSRLVIKYRDTLLEAGVGKNTIGFYLHNMKAVYRRGCLELNLVFPSPFCNIRIRSEKTVKQSLPMKQVKSLANLSLSVGTPECLARDVFMFSIYTRGMSFVDIAFLKKSDIFPGVIRYRRQKTGQLLEIGINRQIQNLLERYGDTSGDYLFPLVDESETPYSGYKKAYNRMRYALKKVS” the “soluble on expression in E. coli” value was “not soluble”.
For “DAAPAPAAEAAPAAAPAPAAAAELKEVHVPDIGGDEVEVTEIMVAIGDSIEEEQSLITVEGDKASMEVPAPFAGTLKEIKVAAGDKVSTGSLIMVFETAGSGAPAAPAAVEAPAAAAPAASAA”, the “soluble on expression in E. coli” value was “not soluble”.
For “MKRLLLIIICTLGILSCGVPKEVTVPDKHLNYKDNIVLYNEKPYTGKVKLKKIAEKEQFEEGYISVKDGKLEGITDFKNDAAKTHFKFDVKSGKFNGEYILKHPLIGDFVMNFENGELKELKGKFPNDINQDLIFDKDGNVNGLIEQGGKQLDFQGGVAVKDTLKVKMFLDTETKQKLVTEVYEGDKLMAREENILLFTVKDFTEELLPVTGLQ”, the “soluble on expression in E. coli” value was “not soluble”.
In the case of “MNPAALSAFTRSLLFNRCSTSSFCNSITRNAVAFFATAAATPKINVNVGTIGHIDHGKTTLTSAITRVQAKKGFAKHIKFDEIDKGKEEKKRGITINVAHIGYESPLRRYSHTDCPGHSDFIKNMICGTSQMDVAVLVIAATDGVMEQTKEHLILAKQVGVKNMAIFINKADLVEEDDLDLVEMEARELLSLHGFNGDATPVIRGSALSALEGQDISCIERLIDALDSLPEPDRNEKDTFVMPIASKTAITGRGTVIVGTLERGVLKKGDKVEIKGDGQTLQTTASDIQVFGKSVKEVRAGDHCGVLCRGVKGDTVKRGMWAGHPGAVTITNRVKVELYLLSEAENGRKIGIRTGFTDKMYCSTWDQVGRFDMSNELLMPGEHTSATVLLMKDMPLRKGMPFTLREGSSKTTIARGIISDLEDHVAVEKHNLKKSAEKM”, the “soluble on expression in E. coli” value is reported as “not soluble”.
In the case of “MGSDKIHHHHHHMEKRYQIFISSTFIDLKDERQAALKAILEIDHMPAGMELFSATDDSAWQLIQDVIDSSDYYILIVGGRYGSLDEAGLSYTEKEYDYALLTKKPVIPLLHENPDNLPRDKTETDSNAWKKLQDFRKKVQKKHTCVYWRNADDLKAKVIVGLTSAIKRHPAVGWVRADKVPTETALAEVLSLKNKITELEKEAALLRDKPPSGTEFLAQGNDKYEIHLSFKSRGKFSIFSHDEDKKYNASINLTWNAIFAAVAPSMINEASAHTLRQAFTDFFKRESLKAFQSQKRFENYELVDFSFHKDEIETCIVQLRALGLIKENDRKRSVSDTSTYWTLTPYGNTLMVQLRAIKREPLEDEDLDGTAVES”, the “soluble on expression in E. coli” value is reported as “not soluble”.
For “MASRVNIVQVQILDNPAMFVDKFKMEITFEVFEHLPHDLEWELVYVGSGTSRDFDQVLDSALVGPIPEGRHKFVFDAEHPDISKIPVEDIVGVSVLLLRCKYNDQEFINMGWFVANEYTDEELKENPPAKPLIEKLSRKIETEDLRVTTFPIRWTDEDPVAEPVDEEANKVFDEDDLMPLHDDGQDDDEEEEDDDETGPNTEEVDLNESFNERMANAHDGTEQKNGEESMEHDGASGDVEMGDKH”, the “soluble on expression in E. coli” value was “soluble”.
For “MMAYKSLLTVLTDPKIAPATLAQLVALAEAQDAHAEALCLGVDRSQTGYYYAGANALILQETLNRANAEAEEVLTLAQDTLGKSGVRWSAESGVAQIADLGRHVAHRARFSDLVVLSRPYGEDRGSEAEPIVEAAMFEGHAPVLVVPDNAPPLKQPRTVLLGWNESVEAMRAIRLAMPFLRAADLVRIVVIDPPRHGPDRSDPGGLLSQMLARHGVKVEIDVLSKTMTRVSDILNRHATDTSADMLVMGAYGHSRFREAILGGATRNMLEQATVPVFMAH”, the “soluble on expression in E. coli” value was “not soluble”.
In the case of “MVAWSIVDYGSGDEVPGADAALVLGAAAWGNKPSPVFRERINHAVKLYQSGKVRWIVFTGGTPEPGYPAEADVGREFAARQGVPMTAMLVENQSRTTWQNLSNARDLGNQFGIRSYLLVSDPLHMRRAVLMAGDLGLRAYPAPTQSSRFRTLASWSRFLARETWLYVGYRVFRQLSLEHHHHHH”, the “soluble on expression in E. coli” value is reported as “not soluble”.

From the DeepSol protein solubility set
